Among the data in publication doi:10.1101/200493 are Kd values, retold here.

Where two headings read alike, the source gives them in different places.

The target of assay [1] is His-tagged human recombinant αVβ3 integrin (human) (UniProt P06756). Kind of assay: BLI.
For assay [2] the target is unchanged. Kind of assay: BLI. This is another data set of the same source. For orientation: In BLI a coated tip is dipped into the sample, and binding shifts an interference pattern.

Sequence of His-tagged human recombinant αVβ3 integrin (human) (P06756 31-1048, chain 1 of 2): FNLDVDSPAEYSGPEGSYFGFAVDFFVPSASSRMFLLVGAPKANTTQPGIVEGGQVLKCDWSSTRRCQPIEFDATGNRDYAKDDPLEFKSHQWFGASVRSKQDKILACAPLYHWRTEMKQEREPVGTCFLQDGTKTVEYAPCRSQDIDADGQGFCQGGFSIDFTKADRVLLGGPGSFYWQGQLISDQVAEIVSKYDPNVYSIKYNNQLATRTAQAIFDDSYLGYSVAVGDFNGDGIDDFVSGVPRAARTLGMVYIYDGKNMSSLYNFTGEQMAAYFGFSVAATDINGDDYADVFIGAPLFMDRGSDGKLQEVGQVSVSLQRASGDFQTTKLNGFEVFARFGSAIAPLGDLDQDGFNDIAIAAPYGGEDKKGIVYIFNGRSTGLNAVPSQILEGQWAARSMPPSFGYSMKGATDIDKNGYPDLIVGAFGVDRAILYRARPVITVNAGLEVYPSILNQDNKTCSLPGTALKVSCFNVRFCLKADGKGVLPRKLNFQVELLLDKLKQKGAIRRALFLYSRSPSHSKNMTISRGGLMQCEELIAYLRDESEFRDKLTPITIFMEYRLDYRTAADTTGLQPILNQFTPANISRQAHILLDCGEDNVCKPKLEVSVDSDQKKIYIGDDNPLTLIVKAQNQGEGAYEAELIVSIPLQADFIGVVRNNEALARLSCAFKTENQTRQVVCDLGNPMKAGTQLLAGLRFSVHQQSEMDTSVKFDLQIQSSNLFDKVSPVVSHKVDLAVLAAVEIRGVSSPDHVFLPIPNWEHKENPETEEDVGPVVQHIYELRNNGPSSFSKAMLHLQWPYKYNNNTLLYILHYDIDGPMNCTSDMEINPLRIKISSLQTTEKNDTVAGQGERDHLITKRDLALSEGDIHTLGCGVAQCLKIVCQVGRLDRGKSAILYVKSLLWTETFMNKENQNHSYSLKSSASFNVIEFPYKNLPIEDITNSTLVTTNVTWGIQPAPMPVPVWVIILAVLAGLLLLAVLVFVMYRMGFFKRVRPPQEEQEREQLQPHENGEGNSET
Sequence of His-tagged human recombinant αVβ3 integrin (human) (P05106 27-718, chain 2 of 2, further chain): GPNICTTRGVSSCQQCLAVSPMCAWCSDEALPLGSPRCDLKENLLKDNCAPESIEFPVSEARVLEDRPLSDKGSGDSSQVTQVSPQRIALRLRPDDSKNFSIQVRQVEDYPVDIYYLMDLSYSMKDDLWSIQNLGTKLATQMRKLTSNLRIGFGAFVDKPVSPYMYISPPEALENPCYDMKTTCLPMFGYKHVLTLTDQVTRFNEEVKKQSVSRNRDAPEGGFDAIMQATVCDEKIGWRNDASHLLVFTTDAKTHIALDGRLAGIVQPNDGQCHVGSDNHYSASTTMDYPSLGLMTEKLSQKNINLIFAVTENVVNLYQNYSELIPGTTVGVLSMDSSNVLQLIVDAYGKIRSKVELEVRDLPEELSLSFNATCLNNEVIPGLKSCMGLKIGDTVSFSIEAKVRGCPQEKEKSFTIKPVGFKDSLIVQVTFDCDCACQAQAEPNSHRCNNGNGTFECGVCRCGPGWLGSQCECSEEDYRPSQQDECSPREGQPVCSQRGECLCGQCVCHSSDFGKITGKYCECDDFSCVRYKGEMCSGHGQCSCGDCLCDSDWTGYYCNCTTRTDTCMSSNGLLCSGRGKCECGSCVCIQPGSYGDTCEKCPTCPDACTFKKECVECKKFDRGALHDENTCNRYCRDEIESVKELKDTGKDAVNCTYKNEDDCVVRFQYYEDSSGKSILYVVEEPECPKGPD
Sequence of human vitronectin (P04004 20-478): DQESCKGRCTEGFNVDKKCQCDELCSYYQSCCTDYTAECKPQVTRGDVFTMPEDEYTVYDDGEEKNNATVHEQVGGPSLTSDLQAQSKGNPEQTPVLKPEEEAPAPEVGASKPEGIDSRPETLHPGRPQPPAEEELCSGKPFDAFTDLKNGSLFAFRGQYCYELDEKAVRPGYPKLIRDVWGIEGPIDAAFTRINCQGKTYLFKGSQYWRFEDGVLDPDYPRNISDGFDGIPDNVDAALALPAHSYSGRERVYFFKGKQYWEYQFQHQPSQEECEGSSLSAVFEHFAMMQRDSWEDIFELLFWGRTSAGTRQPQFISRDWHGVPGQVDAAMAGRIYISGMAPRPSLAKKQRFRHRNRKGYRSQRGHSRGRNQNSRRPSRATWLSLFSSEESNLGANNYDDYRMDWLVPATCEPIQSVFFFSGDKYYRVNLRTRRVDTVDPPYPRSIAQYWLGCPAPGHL

As for “native human fibrinogen (from UniProt P02671 36-866; P02675 45-491; P02679 27-453) (ligand)”, the dissociation constant Kd in assay [1] came to 8.15 nM.
“human vitronectin (from UniProt P04004 20-478) (ligand)”: the Kd in assay [2] is 303 nM; in assay [1] it was below 0.001 nM.
Consider human plasma fibronectin (ligand), for which the Kd in assay [1] came out at 54 nM.

Usually Kd stands for the free concentration of one partner at which half of the binding sites on the other are occupied at equilibrium, for simple one-to-one binding.
